B1: Dickkopf-related protein 1 (Homo sapiens), O94907 (parent)
chain: MMALGAAGATRVFVAMVAAALGGHPLLGVSATLNSVLNSNAIKNLPPPLGGAAGHPGSAVSAAPGILYPGGNKYQTIDNYQPYPCAEDEECGTDEYCASPTRGGDAGVQICLACRKRRKRCMRHAMCCPGNYCKNGICVSSDQNHFRGEIEETITESFGNDHSTLDGYSRRTTLSSKMYHTKGQEGSVCLRSSDCASGLCCARHFWSKICKPVLKEGQVCTKHRRKGSHGLEIFQRCYCGEGLSCRIQKDHHQASNSSRLHTCQRH
B2: Low-density lipoprotein receptor-related protein 6 (Homo sapiens), O75581 (parent)
chain: MGAVLRSLLACSFCVLLRAAPLLLYANRRDLRLVDATNGKENATIVVGGLEDAAAVDFVFSHGLIYWSDVSEEAIKRTEFNKTESVQNVVVSGLLSPDGLACDWLGEKLYWTDSETNRIEVSNLDGSLRKVLFWQELDQPRAIALDPSSGFMYWTDWGEVPKIERAGMDGSSRFIIINSEIYWPNGLTLDYEEQKLYWADAKLNFIHKSNLDGTNRQAVVKGSLPHPFALTLFEDILYWTDWSTHSILACNKYTGEGLREIHSDIFSPMDIHAFSQQRQPNATNPCGIDNGGCSHLCLMSPVKPFYQCACPTGVKLLENGKTCKDGATELLLLARRTDLRRISLDTPDFTDIVLQLEDIRHAIAIDYDPVEGYIYWTDDEVRAIRRSFIDGSGSQFVVTAQIAHPDGIAVDWVARNLYWTDTGTDRIEVTRLNGTMRKILISEDLEEPRAIVLDPMVGYMYWTDWGEIPKIERAALDGSDRVVLVNTSLGWPNGLALDYDEGKIYWGDAKTDKIEVMNTDGTGRRVLVEDKIPHIFGFTLLGDYVYWTDWQRRSIERVHKRSAEREVIIDQLPDLMGLKATNVHRVIGSNPCAEENGGCSHLCLYRPQGLRCACPIGFELISDMKTCIVPEAFLLFSRRADIRRISLETNNNNVAIPLTGVKEASALDFDVTDNRIYWTDISLKTISRAFMNGSALEHVVEFGLDYPEGMAVDWLGKNLYWADTGTNRIEVSKLDGQHRQVLVWKDLDSPRALALDPAEGFMYWTEWGGKPKIDRAAMDGSERTTLVPNVGRANGLTIDYAKRRLYWTDLDTNLIESSNMLGLNREVIADDLPHPFGLTQYQDYIYWTDWSRRSIERANKTSGQNRTIIQGHLDYVMDILVFHSSRQSGWNECASSNGHCSHLCLAVPVGGFVCGCPAHYSLNADNRTCSAPTTFLLFSQKSAINRMVIDEQQSPDIILPIHSLRNVRAIDYDPLDKQLYWIDSRQNMIRKAQEDGSQGFTVVVSSVPSQNLEIQPYDLSIDIYSRYIYWTCEATNVINVTRLDGRSVGVVLKGEQDRPRAVVVNPEKGYMYFTNLQERSPKIERAALDGTEREVLFFSGLSKPIALALDSRLGKLFWADSDLRRIESSDLSGANRIVLEDSNILQPVGLTVFENWLYWIDKQQQMIEKIDMTGREGRTKVQARIAQLSDIHAVKELNLQEYRQHPCAQDNGGCSHICLVKGDGTTRCSCPMHLVLLQDELSCGEPPTCSPQQFTCFTGEIDCIPVAWRCDGFTECEDHSDELNCPVCSESQFQCASGQCIDGALRCNGDANCQDKSDEKNCEVLCLIDQFRCANGQCIGKHKKCDHNVDCSDKSDELDCYPTEEPAPQATNTVGSVIGVIVTIFVSGTVYFICQRMLCPRMKGDGETMTNDYVVHGPASVPLGYVPHPSSLSGSLPGMSRGKSMISSLSIMGGSSGPPYDRAHVTGASSSSSSSTKGTYFPAILNPPPSPATERSHYTMEFGYSSNSPSTHRSYSYRPYSYRHFAPPTTPCSTDVCDSDYAPSRRMTSVATAKGYTSDLNYDSEPVPPPPTPRSQYLSAEENYESCPPSPYTERSYSHHLYPPPPSPCTDSS
B3: Low-density lipoprotein receptor-related protein 6 (Homo sapiens), O75581 (parent)
chain: B2 chain
partner: B1 chain
B4: Sclerostin (Homo sapiens), Q9BQB4 (parent)
chain: MQLPLALCLVCLLVHTAFRVVEGQGWQAFKNDATEIIPELGEYPEPPPELENNKTMNRAENGGRPPHHPFETKDVSEYSCRELHFTRYVTDGPCRSAKPVTELVCSGQCGPARLLPNAIGRGKWWRPSGPDFRCIPDRYRAQRVQLLCPGGEAPRARKVRLVASCKCKRLTRFHNQSELKDFGTEAARPQKGRKPRPRARSAKANQAELENAY

Variants of: B1
Details: with lrp6_human LRP6, O75581

| Variant | effect of a mutation on the interaction |
| --- | --- |
| MMALGAAGATRVFVAMVAAALGGHPLLGVSATLNSVLNSAAIKNLPPPLGGAAGHPGSAVSAAPGILYPGGNKYQTIDNYQPYPCAEDEECGTDEYCASPTRGGDAGVQICLACRKRRKRCMRHAMCCPGNYCKNGICVSSDQNHFRGEIEETITESFGNDHSTLDGYSRRTTLSSKMYHTKGQEGSVCLRSSDCASGLCCARHFWSKICKPVLKEGQVCTKHRRKGSHGLEIFQRCYCGEGLSCRIQKDHHQASNSSRLHTCQRH [N40A] | decreasing interaction |
| MMALGAAGATRVFVAMVAAALGGHPLLGVSATLNSVLNSNAEKNLPPPLGGAAGHPGSAVSAAPGILYPGGNKYQTIDNYQPYPCAEDEECGTDEYCASPTRGGDAGVQICLACRKRRKRCMRHAMCCPGNYCKNGICVSSDQNHFRGEIEETITESFGNDHSTLDGYSRRTTLSSKMYHTKGQEGSVCLRSSDCASGLCCARHFWSKICKPVLKEGQVCTKHRRKGSHGLEIFQRCYCGEGLSCRIQKDHHQASNSSRLHTCQRH [I42E] | disrupting interaction |

Variants of: B1
Details: with lrp6_human LRP6, O75581
Remark: another data set of the same source

| Variant | effect of a mutation on the interaction |
| --- | --- |
| MMALGAAGATRVFVAMVAAALGGHPLLGVSATLNSVLNSNAIKNLPPPLGGAAGHPGSAVSAAPGILYPGGNKYQTIDNYQPYPCAEDEECGTDEYCASPTRGGDAGVQICLACRKRRKRCMRHAMCCPGNYCKNGICVSSDQNHFRGEIEETITESFGNDHSTLDGYSRRTTLSSKMYHTKGQEGSVCLRSSDCASGLCCARHFWSKICEPVLKEGQVCTKHRRKGSHGLEIFQRCYCGEGLSCRIQKDHHQASNSSRLHTCQRH [K211E] | disrupting interaction |
| MMALGAAGATRVFVAMVAAALGGHPLLGVSATLNSVLNSNAIKNLPPPLGGAAGHPGSAVSAAPGILYPGGNKYQTIDNYQPYPCAEDEECGTDEYCASPTRGGDAGVQICLACRKRRKRCMRHAMCCPGNYCKNGICVSSDQNHFRGEIEETITESFGNDHSTLDGYSRRTTLSSKMYHTKGQEGSVCLRSSDCASGLCCAREFWSKICKPVLKEGQVCTKHRRKGSHGLEIFQRCYCGEGLSCRIQKDHHQASNSSRLHTCQRH [H204E] | disrupting interaction |

Variants of: B2
Details: with sost_human SOST

| effect of a mutation on the interaction | Variant |
| --- | --- |
| disrupting interaction | A229T |
| disrupting interaction | N185S |
| disrupting interaction | A201V |

Continued, variant first:

| Variant | effect of a mutation on the interaction |
| --- | --- |
| R141M | disrupting interaction |
| D98Y | disrupting interaction |

Variants of: B3
Details: with dkk1_human DKK1, O94907

| Variant | effect of a mutation on the interaction |
| --- | --- |
| D98Y | disrupting interaction |
| A229T | disrupting interaction |
| N185S | disrupting interaction |
| A201V | disrupting interaction |
| R141M | disrupting interaction |

Variants of: B4
Details: with lrp6_human LRP6, O75581

| Variant | effect of a mutation on the interaction |
| --- | --- |
| N117A | decreasing interaction |
| I119E | decreasing interaction |
